The values that follow come from publication PMC5247705.

Assay [1] addresses human Toll-like receptor 5 on HEK293^TLR5 reporter cells (human) (UniProt O60602).
Assay [2] deals with rTLR5^N14-Avitag, biotinylated (zebrafish | hagfish) (UniProt B3DIN1). Kind of assay: ELISA; competitive binding assay: 96-well plates coated with 0.2 μg/ml bsflagellin in PBS; serially diluted soluble flagellin and 0.02 μg/ml biotinylated rTLR5^N14-Avitag incubated together for 48 hours at 4 °C in 1% BSA in PBS-T; detected with HRP-streptavidin. For orientation: In an ELISA, binding on a coated surface is turned into a signal by an enzyme label.

The target of assay [3] is human Toll-like receptor 5 on HEK293^TLR5 reporter cells (human) (UniProt O60602). The source holds these as a separate data set.
The target is the same in assay [4]. The source holds these as a separate data set.
The target of assay [5] is rTLR5^N14, tag-free (zebrafish TLR5 LRRNT-LRR14 fused to the C-terminal fragment of hagfish variable lymphocyte receptor) (zebrafish | hagfish) (UniProt B3DIN1). Briefly: native gel or EMSA; purified flagellin and rTLR5^N14 incubated at 18 °C for 30 minutes; native PAGE on 6% polyacrylamide gels at room temperature for 1.5 hours at 100 V. A general note: In EMSA bound probe runs differently from free probe, usually more slowly.

The target is the same in assay [6]. Briefly: SEC; purified flagellin and rTLR5^N14 incubated at 18 °C for 30 minutes; Superdex 200 10/300 column; elution monitored at 222 nm. A general note: In gel filtration, larger molecules generally elute earlier.
Assay [7] shares this target. Kind of assay: crystal structure; bsflagellin^cent-rTLR5^N14 complex, 2.1 Å; crystallised in 17.5% (w/v) PEG 300, 50 mM sodium acetate, pH 4.4 at 18 °C.

Sequence of UniProt O60602 (O60602 21-858): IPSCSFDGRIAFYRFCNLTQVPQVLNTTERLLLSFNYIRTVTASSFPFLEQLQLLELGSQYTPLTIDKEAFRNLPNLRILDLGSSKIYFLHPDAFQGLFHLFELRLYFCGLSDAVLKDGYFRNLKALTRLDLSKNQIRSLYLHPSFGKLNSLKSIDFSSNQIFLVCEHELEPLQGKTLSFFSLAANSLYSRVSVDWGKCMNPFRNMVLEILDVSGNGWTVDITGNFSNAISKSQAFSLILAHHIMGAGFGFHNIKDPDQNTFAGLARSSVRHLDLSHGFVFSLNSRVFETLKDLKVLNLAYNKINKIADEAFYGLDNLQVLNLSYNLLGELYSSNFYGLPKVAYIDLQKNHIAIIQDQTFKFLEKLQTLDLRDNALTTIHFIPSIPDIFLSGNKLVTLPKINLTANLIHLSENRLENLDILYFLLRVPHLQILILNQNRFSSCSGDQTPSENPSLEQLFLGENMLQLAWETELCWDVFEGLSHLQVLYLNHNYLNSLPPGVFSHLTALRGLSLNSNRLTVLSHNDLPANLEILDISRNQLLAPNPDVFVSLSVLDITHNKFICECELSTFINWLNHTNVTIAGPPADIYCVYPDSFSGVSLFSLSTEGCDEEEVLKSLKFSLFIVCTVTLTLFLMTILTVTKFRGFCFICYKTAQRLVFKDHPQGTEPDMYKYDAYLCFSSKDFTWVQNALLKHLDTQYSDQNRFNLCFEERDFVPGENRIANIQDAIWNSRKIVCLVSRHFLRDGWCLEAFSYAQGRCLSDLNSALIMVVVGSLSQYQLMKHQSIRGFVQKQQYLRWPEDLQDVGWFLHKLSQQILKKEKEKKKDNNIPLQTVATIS

As to “bsflagellin L93A mutant (from UniProt P02968 1-304) (natural protein)”, in assay [1], the TLR5 activity in the HEK293^TLR5 reporter cell assay, fold reduction against bsflagellin^WT amounted to 2 fold.

Usually IC50 stands for the concentration that gives 50% inhibition. For “Salmonella enterica subspecies enterica serovar Dublin flagellin, full length (from UniProt Q06971 1-505) (natural protein)”, in assay [2], the IC50 is 289 pM. In assay [3], this substance yielded an EC50 (pM) for TLR5 signaling; NF-κB-inducible SEAP reporter in HEK293^TLR5 cells of 0.57 pM.

On to “bsflagellin E114A mutant (from UniProt P02968 1-304) (natural protein)”, for which the TLR5 activity in the HEK293^TLR5 reporter cell assay, fold reduction against bsflagellin^WT in assay [1] was 6 fold. Turning to “Pseudomonas aeruginosa flagellin, full length (from UniProt P21184 1-394) (natural protein)”, the half-maximal inhibitory concentration (IC50) in assay [2] stood at 673 pM. Besides, the EC50 (pM) for TLR5 signaling; NF-κB-inducible SEAP reporter in HEK293^TLR5 cells in assay [3] was determined as 1.68 pM.

In the case of “bsflagellin R89A mutant (from UniProt P02968 1-304) (natural protein)”, the HEK293^TLR5 reporter cell activity, fold change of EC50 against bsflagellin^WT in assay [4] is 49 fold. The fold lower activity in the competitive rTLR5^N14-binding assay in assay [2] stood at 10 fold.

Take “Shigella flexneri flagellin, full length (from UniProt Q08860 1-550) (natural protein)”: the IC50 in assay [2] turned out to be 414 pM. This substance registered an EC50 (pM) for TLR5 signaling; NF-κB-inducible SEAP reporter in HEK293^TLR5 cells in assay [3] of 1.57 pM. In the same order, the values of “Escherichia coli flagellin, full length (from UniProt P04949 1-498) (natural protein)” are 517 pM and 1.13 pM. The term stoichiometry N denotes a count of units in the complex or per binding partner. As for “Bacillus subtilis flagellin (Hag), full-length wild type (from UniProt P02968 1-304) (natural protein)”, the IC50 in assay [2] was determined as 204 pM. The stoichiometry N in assay [5] and in assay [6] was 1 throughout. Also, in assay [3], the EC50 (pM) for TLR5 signaling; NF-κB-inducible SEAP reporter in HEK293^TLR5 cells turned out to be 1.18 pM.

For “central region of bsflagellin (bsflagellin^cent; D1 residues 54-230) (from UniProt P02968 54-230) (domain or fragment)”, the stoichiometry N in assay [7] is 1.
